Experimental data from patent US20150344540A1, “NOVEL GLP-1 RECEPTOR AGONISTS WITH CHOLESTEROL EFFLUX ACTIVITY” (NOVO NORDISK A/S, priority 2012, published 2015).
Where no end group is shown, it is not given here. [ ]: non-standard residue; d: D form. Aib = CC(C)(N)C(=O)O

B1: [Aib8,Glu23,Val25,Glu34,Lys35,Aib36,Lys37]-GLP-1-(7-37)-peptidyl-His-Phe-Leu amide (peptide)
peptide: H[Aib]EGTFTSDVSSYLEGEAVKEFIAWLVEK[Aib]KHFL-NH2
modifications: N-terminus assumed
SMILES: CC[C@H](C)[C@H](NC(=O)[C@H](Cc1ccccc1)NC(=O)[C@H](CCC(=O)O)NC(=O)[C@H](CCCCN)NC(=O)[C@@H](NC(=O)[C@H](C)NC(=O)[C@H](CCC(=O)O)NC(=O)CNC(=O)[C@H](CCC(=O)O)NC(=O)[C@H](CC(C)C)NC(=O)[C@H](Cc1ccc(O)cc1)NC(=O)[C@H](CO)NC(=O)[C@H](CO)NC(=O)[C@@H](NC(=O)[C@H](CC(=O)O)NC(=O)[C@H](CO)NC(=O)[C@@H](NC(=O)[C@H](Cc1ccccc1)NC(=O)[C@@H](NC(=O)CNC(=O)[C@H](CCC(=O)O)NC(=O)C(C)(C)NC(=O)[C@@H](N)Cc1c[nH]cn1)[C@@H](C)O)[C@@H](C)O)C(C)C)C(C)C)C(=O)N[C@@H](C)C(=O)N[C@@H](Cc1c[nH]c2ccccc12)C(=O)N[C@@H](CC(C)C)C(=O)N[C@H](C(=O)N[C@@H](CCC(=O)O)C(=O)N[C@@H](CCCCN)C(=O)NC(C)(C)C(=O)N[C@@H](CCCCN)C(=O)N[C@@H](Cc1c[nH]cn1)C(=O)N[C@@H](Cc1ccccc1)C(=O)N[C@@H](CC(C)C)C(N)=O)C(C)C
B2: [Aib8,Glu23,Val25,Glu34,Aib36,Lys37]-GLP-1-(7-37)-peptidyl-Glu-Phe-Leu amide (peptide)
peptide: H[Aib]EGTFTSDVSSYLEGEAVKEFIAWLVEG[Aib]KEFL-NH2
modifications: N-terminus assumed
SMILES: CC[C@H](C)[C@H](NC(=O)[C@H](Cc1ccccc1)NC(=O)[C@H](CCC(=O)O)NC(=O)[C@H](CCCCN)NC(=O)[C@@H](NC(=O)[C@H](C)NC(=O)[C@H](CCC(=O)O)NC(=O)CNC(=O)[C@H](CCC(=O)O)NC(=O)[C@H](CC(C)C)NC(=O)[C@H](Cc1ccc(O)cc1)NC(=O)[C@H](CO)NC(=O)[C@H](CO)NC(=O)[C@@H](NC(=O)[C@H](CC(=O)O)NC(=O)[C@H](CO)NC(=O)[C@@H](NC(=O)[C@H](Cc1ccccc1)NC(=O)[C@@H](NC(=O)CNC(=O)[C@H](CCC(=O)O)NC(=O)C(C)(C)NC(=O)[C@@H](N)Cc1c[nH]cn1)[C@@H](C)O)[C@@H](C)O)C(C)C)C(C)C)C(=O)N[C@@H](C)C(=O)N[C@@H](Cc1c[nH]c2ccccc12)C(=O)N[C@@H](CC(C)C)C(=O)N[C@H](C(=O)N[C@@H](CCC(=O)O)C(=O)NCC(=O)NC(C)(C)C(=O)N[C@@H](CCCCN)C(=O)N[C@@H](CCC(=O)O)C(=O)N[C@@H](Cc1ccccc1)C(=O)N[C@@H](CC(C)C)C(N)=O)C(C)C
B3: [Aib2,Glu21,Lys29,Aib30,Leu31,Phe33,Leu34,Glu35,Leu36,Leu37]-Exendin-4-(1-37)-peptide amide (peptide)
peptide: H[Aib]EGTFTSDLSKQMEEEAVREFIEWLKNK[Aib]LSFLELL-NH2
modifications: N-terminus assumed
SMILES: CC[C@H](C)[C@H](NC(=O)[C@H](Cc1ccccc1)NC(=O)[C@H](CCC(=O)O)NC(=O)[C@H](CCCNC(=N)N)NC(=O)[C@@H](NC(=O)[C@H](C)NC(=O)[C@H](CCC(=O)O)NC(=O)[C@H](CCC(=O)O)NC(=O)[C@H](CCC(=O)O)NC(=O)[C@H](CCSC)NC(=O)[C@H](CCC(N)=O)NC(=O)[C@H](CCCCN)NC(=O)[C@H](CO)NC(=O)[C@H](CC(C)C)NC(=O)[C@H](CC(=O)O)NC(=O)[C@H](CO)NC(=O)[C@@H](NC(=O)[C@H](Cc1ccccc1)NC(=O)[C@@H](NC(=O)CNC(=O)[C@H](CCC(=O)O)NC(=O)C(C)(C)NC(=O)[C@@H](N)Cc1c[nH]cn1)[C@@H](C)O)[C@@H](C)O)C(C)C)C(=O)N[C@@H](CCC(=O)O)C(=O)N[C@@H](Cc1c[nH]c2ccccc12)C(=O)N[C@@H](CC(C)C)C(=O)N[C@@H](CCCCN)C(=O)N[C@@H](CC(N)=O)C(=O)N[C@@H](CCCCN)C(=O)NC(C)(C)C(=O)N[C@@H](CC(C)C)C(=O)N[C@@H](CO)C(=O)N[C@@H](Cc1ccccc1)C(=O)N[C@@H](CC(C)C)C(=O)N[C@@H](CCC(=O)O)C(=O)N[C@@H](CC(C)C)C(=O)N[C@@H](CC(C)C)C(N)=O
B4: [Aib2,Glu21,Lys29,Aib30,Leu31,Glu32,Leu34,Glu35,Leu36,Leu37]-Exendin-4-(1-37)-peptide amide (peptide)
peptide: H[Aib]EGTFTSDLSKQMEEEAVREFIEWLKNK[Aib]LESLELL-NH2
modifications: N-terminus assumed
SMILES: CC[C@H](C)[C@H](NC(=O)[C@H](Cc1ccccc1)NC(=O)[C@H](CCC(=O)O)NC(=O)[C@H](CCCNC(=N)N)NC(=O)[C@@H](NC(=O)[C@H](C)NC(=O)[C@H](CCC(=O)O)NC(=O)[C@H](CCC(=O)O)NC(=O)[C@H](CCC(=O)O)NC(=O)[C@H](CCSC)NC(=O)[C@H](CCC(N)=O)NC(=O)[C@H](CCCCN)NC(=O)[C@H](CO)NC(=O)[C@H](CC(C)C)NC(=O)[C@H](CC(=O)O)NC(=O)[C@H](CO)NC(=O)[C@@H](NC(=O)[C@H](Cc1ccccc1)NC(=O)[C@@H](NC(=O)CNC(=O)[C@H](CCC(=O)O)NC(=O)C(C)(C)NC(=O)[C@@H](N)Cc1c[nH]cn1)[C@@H](C)O)[C@@H](C)O)C(C)C)C(=O)N[C@@H](CCC(=O)O)C(=O)N[C@@H](Cc1c[nH]c2ccccc12)C(=O)N[C@@H](CC(C)C)C(=O)N[C@@H](CCCCN)C(=O)N[C@@H](CC(N)=O)C(=O)N[C@@H](CCCCN)C(=O)NC(C)(C)C(=O)N[C@@H](CC(C)C)C(=O)N[C@@H](CCC(=O)O)C(=O)N[C@@H](CO)C(=O)N[C@@H](CC(C)C)C(=O)N[C@@H](CCC(=O)O)C(=O)N[C@@H](CC(C)C)C(=O)N[C@@H](CC(C)C)C(N)=O
B5: [Aib8,Glu23,Val25,Glu34,Lys35,Aib36]-GLP-1-(7-37)-peptidyl-Glu-Phe-Leu amide (peptide)
peptide: H[Aib]EGTFTSDVSSYLEGEAVKEFIAWLVEK[Aib]GEFL-NH2
modifications: N-terminus assumed
SMILES: CC[C@H](C)[C@H](NC(=O)[C@H](Cc1ccccc1)NC(=O)[C@H](CCC(=O)O)NC(=O)[C@H](CCCCN)NC(=O)[C@@H](NC(=O)[C@H](C)NC(=O)[C@H](CCC(=O)O)NC(=O)CNC(=O)[C@H](CCC(=O)O)NC(=O)[C@H](CC(C)C)NC(=O)[C@H](Cc1ccc(O)cc1)NC(=O)[C@H](CO)NC(=O)[C@H](CO)NC(=O)[C@@H](NC(=O)[C@H](CC(=O)O)NC(=O)[C@H](CO)NC(=O)[C@@H](NC(=O)[C@H](Cc1ccccc1)NC(=O)[C@@H](NC(=O)CNC(=O)[C@H](CCC(=O)O)NC(=O)C(C)(C)NC(=O)[C@@H](N)Cc1c[nH]cn1)[C@@H](C)O)[C@@H](C)O)C(C)C)C(C)C)C(=O)N[C@@H](C)C(=O)N[C@@H](Cc1c[nH]c2ccccc12)C(=O)N[C@@H](CC(C)C)C(=O)N[C@H](C(=O)N[C@@H](CCC(=O)O)C(=O)N[C@@H](CCCCN)C(=O)NC(C)(C)C(=O)NCC(=O)N[C@@H](CCC(=O)O)C(=O)N[C@@H](Cc1ccccc1)C(=O)N[C@@H](CC(C)C)C(N)=O)C(C)C
B6: [Aib2,Glu21,Aib30,Leu31,Glu32,Phe33,Leu34,Glu35,Leu36,Leu37]-Exendin-4-(1-37)-peptide amide (peptide)
peptide: H[Aib]EGTFTSDLSKQMEEEAVREFIEWLKNG[Aib]LEFLELL-NH2
modifications: N-terminus assumed
SMILES: CC[C@H](C)[C@H](NC(=O)[C@H](Cc1ccccc1)NC(=O)[C@H](CCC(=O)O)NC(=O)[C@H](CCCNC(=N)N)NC(=O)[C@@H](NC(=O)[C@H](C)NC(=O)[C@H](CCC(=O)O)NC(=O)[C@H](CCC(=O)O)NC(=O)[C@H](CCC(=O)O)NC(=O)[C@H](CCSC)NC(=O)[C@H](CCC(N)=O)NC(=O)[C@H](CCCCN)NC(=O)[C@H](CO)NC(=O)[C@H](CC(C)C)NC(=O)[C@H](CC(=O)O)NC(=O)[C@H](CO)NC(=O)[C@@H](NC(=O)[C@H](Cc1ccccc1)NC(=O)[C@@H](NC(=O)CNC(=O)[C@H](CCC(=O)O)NC(=O)C(C)(C)NC(=O)[C@@H](N)Cc1c[nH]cn1)[C@@H](C)O)[C@@H](C)O)C(C)C)C(=O)N[C@@H](CCC(=O)O)C(=O)N[C@@H](Cc1c[nH]c2ccccc12)C(=O)N[C@@H](CC(C)C)C(=O)N[C@@H](CCCCN)C(=O)N[C@@H](CC(N)=O)C(=O)NCC(=O)NC(C)(C)C(=O)N[C@@H](CC(C)C)C(=O)N[C@@H](CCC(=O)O)C(=O)N[C@@H](Cc1ccccc1)C(=O)N[C@@H](CC(C)C)C(=O)N[C@@H](CCC(=O)O)C(=O)N[C@@H](CC(C)C)C(=O)N[C@@H](CC(C)C)C(N)=O
B7: [Aib2,Glu21,Lys29,Aib30,Glu32,Phe33,Leu34,Glu35,Leu36,Leu37]-Exendin-4-(1-37)-peptide amide (peptide)
peptide: H[Aib]EGTFTSDLSKQMEEEAVREFIEWLKNK[Aib]PEFLELL-NH2
modifications: N-terminus assumed
SMILES: CC[C@H](C)[C@H](NC(=O)[C@H](Cc1ccccc1)NC(=O)[C@H](CCC(=O)O)NC(=O)[C@H](CCCNC(=N)N)NC(=O)[C@@H](NC(=O)[C@H](C)NC(=O)[C@H](CCC(=O)O)NC(=O)[C@H](CCC(=O)O)NC(=O)[C@H](CCC(=O)O)NC(=O)[C@H](CCSC)NC(=O)[C@H](CCC(N)=O)NC(=O)[C@H](CCCCN)NC(=O)[C@H](CO)NC(=O)[C@H](CC(C)C)NC(=O)[C@H](CC(=O)O)NC(=O)[C@H](CO)NC(=O)[C@@H](NC(=O)[C@H](Cc1ccccc1)NC(=O)[C@@H](NC(=O)CNC(=O)[C@H](CCC(=O)O)NC(=O)C(C)(C)NC(=O)[C@@H](N)Cc1c[nH]cn1)[C@@H](C)O)[C@@H](C)O)C(C)C)C(=O)N[C@@H](CCC(=O)O)C(=O)N[C@@H](Cc1c[nH]c2ccccc12)C(=O)N[C@@H](CC(C)C)C(=O)N[C@@H](CCCCN)C(=O)N[C@@H](CC(N)=O)C(=O)N[C@@H](CCCCN)C(=O)NC(C)(C)C(=O)N1CCC[C@H]1C(=O)N[C@@H](CCC(=O)O)C(=O)N[C@@H](Cc1ccccc1)C(=O)N[C@@H](CC(C)C)C(=O)N[C@@H](CCC(=O)O)C(=O)N[C@@H](CC(C)C)C(=O)N[C@@H](CC(C)C)C(N)=O

Molecular target: human GLP-1 receptor (human, UniProt P43220)
Test: cell-based or functional assay

Binder | CRE luciferase EC50, 0% HSA | CRE luciferase EC50, 1% HSA
B1 | 0.205 nM | 0.062 nM
B2 | 0.034 nM | 0.013 nM
B3 | 0.358 nM | 0.145 nM
B4 | 0.023 nM | 0.011 nM
B5 | 0.039 nM | 0.013 nM
B6 | 0.067 nM | 0.032 nM
B7 | 0.058 nM | 0.032 nM
